This passage reports binding result and activity results from patent US9404098, “Method for cleaving a target RNA using a Cas6 polypeptide” (University of Georgia Research Foundation, Inc.).

For data set [1], the target named is T1, PfCas6 (PF1131) (Pyrococcus furiosus, UniProt Q8U1S4 SEQ:1-264).
T1 sequence: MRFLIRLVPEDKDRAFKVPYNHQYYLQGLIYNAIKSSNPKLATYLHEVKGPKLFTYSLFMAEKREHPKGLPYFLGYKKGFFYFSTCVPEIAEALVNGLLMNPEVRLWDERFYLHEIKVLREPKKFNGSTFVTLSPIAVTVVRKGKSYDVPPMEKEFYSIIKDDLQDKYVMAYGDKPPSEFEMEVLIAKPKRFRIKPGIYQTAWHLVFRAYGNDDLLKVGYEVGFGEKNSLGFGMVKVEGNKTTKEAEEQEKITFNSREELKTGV
Nature of the data set: EMSA; binding abolished; up to 500 nM. The following applies: tags: N-terminal 6xHis; label: 32P uniform. The method, then: (§1) Typically, identical reaction conditions were used to assay the ability of PfCas6 protein to bind to and to cleave substrate RNAs. These reactions were initiated by incubating 0.05 μmol of ^32P-radiolabeled RNAs (either uniformly or 5'-end-labeled) with up to 1 (as indicated in the figure legends) of PfCas6 protein in 20 mM HEPES-KOH (pH 7.0), 250 mM KCl, 0.75 mM DTT, 1.5 mM MgCl_2, 5 μg of E. coli tRNA, and 10% glycerol in a 20-μL reaction volume for 30 minutes at 70° C. Half of the reactions were directly run on native 8% polyacrylamide gels to assay RNA binding by gel mobility shift essentially as described (Baker et al., 2005. Genes & Dev. 19: 1238-1248). […] Gels were dried and the radiolabeled RNAs visualized by phosphorimaging.
(§2) Figure 4: FIG. 4. CRISPR repeat sequence requirements for PfCas6 binding. (A) Detailed analysis of binding with a series of CRISPR-derived RNAs and mutants. The left panel illustrates the RNAs tested, with repeat (R) and invader targeting (ψ) sequences, and PfCas6 cleavage site (dashed lines) indicated. The shaded portion of j denotes an insertion, dashed block denotes an internal deletion, and The shaded portions of **, e, f, and k denote substitutions (with complementary sequence). DNA indicates a DNA repeat sequence substrate. PfCas6 binding is summarized relative to binding to the 5' cleavage product (++++). […]

The target in data set [2] is T1, PfCas6 (PF1131). Nature of the data set: EMSA; 70 C. The following applies: tags: N-terminal 6xHis. The method, then: as §1
Figure 4: FIG. 4. CRISPR repeat sequence requirements for PfCas6 binding. (A) Detailed analysis of binding with a series of CRISPR-derived RNAs and mutants. The left panel illustrates the RNAs tested, with repeat (R) and invader targeting (ψ) sequences, and PfCas6 cleavage site (dashed lines) indicated. The shaded portion of j denotes an insertion, dashed block denotes an internal deletion, and The shaded portions of **, e, f, and k denote substitutions (with complementary sequence). DNA indicates a DNA repeat sequence substrate. PfCas6 binding is summarized relative to binding to the 5' cleavage product (++++). Corresponding RNA diagrams and data panels are designated with lowercase letters. The right panels show gel mobility shift analysis of the indicated RNAs with increasing concentrations (0, 1, 50, 200, and 500 nM) of PfCas6. Substrates are uniformly radiolabeled except for those shown in panels a, b, c, and 1, which are 5'-end-labeled. (B) PfCas6 interacts with the gel-purified 5' cleavage product.

In data set [3] the target is T1, PfCas6 (PF1131). Nature of the data set: EMSA; up to 500 nM. The following applies: tags: N-terminal 6xHis; label: 5' 32P. On the procedure:
as §1, §2
(In general: Mobility shift assays separate free from complexed probe on a gel.)

Data set [4] addresses T1, PfCas6 (PF1131). Nature of the data set: EMSA; affinity similar to 5' cleavage product. The settings on record: tags: N-terminal 6xHis; label: 32P. On the procedure:
as §1, §2

In data set [5] the target is T1, PfCas6 (PF1131). Nature of the data set: EMSA; binding to the 5' cleavage product formed during incubation. The settings on record: tags: N-terminal 6xHis; label: 32P 5' or uniform. On the procedure:
as §1, §2

Data set [6] has as its target T1, PfCas6 (PF1131). Nature of the data set: EMSA; 0-500 nM Cas6, 70 C, 250 mM KCl, 1.5 mM MgCl2. The following applies: tags: N-terminal 6xHis; label: 32P uniform. On the procedure: Figure 3: FIG. 3. Identification of the site of PfCas6 cleavage within the CRISPR repeat RNA. (A) The site of PfCas6 cleavage within the CRISPR repeat RNA was mapped by incubating 5' end labeled repeat RNA with PfCas6 nuclease and comparing the size of the 5' RNA cleavage product (arrow) with RNAse T1 (T1) and alkaline hydrolysis (OH) sequence ladders. (B) Potential secondary structure of P. furiosus repeat RNA (SEQ ID No: 238) with cleavage site indicated. (C) Analysis of cleavage of wild-type and cleavage site mutant (AA to GG) repeat RNAs with increasing concentrations (0, 1, 50, 200, and 500 nM) of PfCas6. (D) Native gel mobility shift analysis of wild-type and mutant repeat RNAs with increasing concentrations of PfCas6. The positions of the free (RNA) and protein-bound (RNP) RNAs are indicated. 5' and 3' cleavage products are indicated in both C and D. The sizes of RNA markers (M) are indicated in A and C.
Typically, identical reaction conditions were used to assay the ability of PfCas6 protein to bind to and to cleave substrate RNAs. These reactions were initiated by incubating 0.05 μmol of ^32P-radiolabeled RNAs (either uniformly or 5'-end-labeled) with up to 1 (as indicated in the figure legends) of PfCas6 protein in 20 mM HEPES-KOH (pH 7.0), 250 mM KCl, 0.75 mM DTT, 1.5 mM MgCl_2, 5 μg of E. coli tRNA, and 10% glycerol in a 20-μL reaction volume for 30 minutes at 70° C. […]

The target in data set [7] is T1, PfCas6 (PF1131). Nature of the data set: EMSA; gel-purified; up to 500 nM. The settings on record: tags: N-terminal 6xHis; label: 32P uniform. On the procedure: as §1, §2
The target in data set [8] is T1, PfCas6 (PF1131). Nature of the data set: footprint; nt 2-8 protected from Pb(II); nt 3, 5 and 8 from RNase A; no 3' region protection; 500 mM KCl. The settings on record: tags: N-terminal 6xHis; label: 32P (5', 3' or uniform); potential weak hairpin, mostly unstructured in solution. From the text:
Size markers include 5' end-labeled RNA markers (M) and alkaline hydrolysis ladders (OH). Bars along right side of each gel indicate strong protections. (B) 5' end-labeled CRISPR repeat RNA was used for lead-induced and RNase A cleavage as was done in (A). […] (C) A summary of cleavage protection is shown. The Cas6 cleavage site is indicated by an asterisk (*), and the nucleotides protected from cleavage are shown by the bars above and below the sequence FIG. 10. Lead-induced and RNase A cleavage footprinting with CRISPR repeat RNA and PfCas6. (A) 3' end labeled CRISPR repeat RNA was incubated in the absence (RNA) or presence of increasing concentrations of PfCas6 (indicated in μM) and then subjected to RNase A cleavage (left panel) or lead-induced cleavage (right panel). […] Size markers include 5' end-labeled RNA markers (M) and alkaline hydrolysis ladders (OH). Bars along right side of each gel indicate strong protections. (B) 5' end-labeled CRISPR repeat RNA was used for lead-induced and RNase A cleavage as was done in (A). […] (C) A summary of cleavage protection is shown. The Cas6 cleavage site is indicated by an asterisk (*), and the nucleotides protected from cleavage are shown by the bars above and below the sequence (SEQ ID NO: 238). Figure 10:
Specifically, nucleotides 2-8 were protected from lead induced cleavage in a Cas6 concentration dependent manner. […]

The next data set deals with T2, PfCas6 Y31F (Pyrococcus furiosus, UniProt Q8U1S4 SEQ:1-264, Y31F).
T2 sequence: T1 sequence with Y31F
Nature of the data set: cleavage_in_vitro; 500 nM. The settings on record: tags: N-terminal 6xHis; label: 32P (5', 3' or uniform); potential weak hairpin, mostly unstructured in solution. On the procedure: (§3) RNA-binding and cleavage reactions. RNA binding and cleavage reactions were carried out as described in example 1. Briefly, 0.05 μmol of uniformly ^32P-labeled RNA was incubated in the absence (free RNA) or presence of increasing concentrations of Cas6 (as indicated in figure legends) in buffer A for 30 minutes at 65-70° C. Half of each reaction was run on 8% native polyacrylamide gels to assess RNA binding by gel mobility shift analysis. RNA cleavage was assessed by separation of the RNAs on denaturing, 7 M urea containing, 15% polyacrylamide gels following PCI extraction and ethanol precipitation. For analysis of native Cas6 cleavage activity, either ~40 μg of whole cell extract (WCE) or supernatant from an immunoprecipitation reaction (see below) was incubated with 0.05 μmol of uniformly ^32P labeled RNA for 30 minutes at 70° C. Alternatively, 10 μL of resin from an immunoprecipitation reaction (see below) was added. In this case, samples were mixed every five minutes by pipetting up and down during the 30 minute incubation at 70° C. The gels were dried and RNAs visualized by phosphor imaging. Quantitation of cleavage was performed using ImageQuant™ TL software (GE Life Sciences).
(§4) Figure 11: FIG. 11. Cleavage activity of Cas6 mutants. […] The 5' and 3' cleavage products are indicated. (B) Purified wild type (wt) and mutant Cas6 proteins (as indicated above) were separated by SDS-PAGE. Molecular weight markers are indicated in kDa.
(§5) Mutation of any of the three triad amino acids led to a significant decrease or complete loss of cleavage activity relative to wild type Cas6 (FIG. 11A).

The next data set has as its target T3, PfCas6 K52A (Pyrococcus furiosus, UniProt Q8U1S4 SEQ:1-264, K52A).
T3 sequence: T1 sequence with K52A
Nature of the data set: cleavage_in_vitro; 500 nM. The settings on record: tags: N-terminal 6xHis; label: 32P (5', 3' or uniform); potential weak hairpin, mostly unstructured in solution. On the procedure:
as §3, §4, §5

A further data set concerns the target T4, PfCas6 K52E (Pyrococcus furiosus, UniProt Q8U1S4 SEQ:1-264, K52E).
T4 sequence: T1 sequence with K52E
Nature of the data set: cleavage_in_vitro; 500 nM. The settings on record: tags: N-terminal 6xHis; label: 32P (5', 3' or uniform); potential weak hairpin, mostly unstructured in solution. On the procedure: as §3, §4, §5

Residue numbers refer to the chain shown, from its start. Bounds are passed on as bounds.

B1: del. 1-8 (ssRNA)
RNA: GGGAAGACCAAAAUAGAAUUGAAAG
Consider B1, for which the binding result with PfCas6 (PF1131) [1] is “no binding”.

B2: sub. 23-30 (ssRNA)
RNA: GGGUUACAAUAAGACCAAAAUAGAAAACUUUC
Consider B2, for which the binding result in the data set with PfCas6 (PF1131) [2] (label: 32P uniform) is “binds”.

B3: last 8 nt of repeat + guide (ssRNA)
RNA: AUUGAAAGUUGUAGUAUGCGGUCCUUGCGGCUGAGAGCACUUCAG
As to B3, the binding result with PfCas6 (PF1131) [3] is on record as “no binding”.

B4: del. 23-30 (ssRNA)
RNA: GGGUUACAAUAAGACCAAAAUAG
In the case of B4, the binding result in the data set with PfCas6 (PF1131) [2] (label: 32P uniform) is “binds”.

B5: repeat nt 1-12 (ssRNA)
RNA: GUUACAAUAAGA
In the case of B5, the binding result with PfCas6 (PF1131) [4] was “binds”.

B6: repeat-guide-repeat (R-g-R) (ssRNA)
RNA: GGGUUCCAAUAAGACUACAAAAGAAUUGAAAGUUGUAGUAUGCGGUCCUUGCGGCUGAGAGCACUUCAGGUUCCAAUAAGACUACCAAAAGAAUUGAAAG
For B6, in the data set with PfCas6 (PF1131) [5], the binding result is given as “binds”.

B7: guide + first part of repeat (panel c) (ssRNA)
RNA: GGGAUUGAAAGUUGUAGUAUGCGGUCCUUGCGGCUGAGAGCACUUCAGGUUACAAUAAGACCAAAAUAGA
Regarding B7, the binding result in the data set with PfCas6 (PF1131) [2] (label: 5' 32P) was “binds”.

B8: sub. 1-8 (ssRNA)
RNA: GGGCAAUGUUAAAGACCAAAAUAGAAUUGAAAG
Turning to B8, in the data set with PfCas6 (PF1131) [1], the binding result is given as “no binding”.

B9: AA to GG cleavage site mutant repeat (ssRNA)
RNA: GGGUUACAAUAAGACCAAAAUAGGGUUGAAAG
Take B9: the binding result in the data set with PfCas6 (PF1131) [6] is listed as “binds”.

B10: 3' cleavage product (repeat nt 23-30) (ssRNA)
RNA: AUUGAAAG
Take B10: in the data set with PfCas6 (PF1131) [7], the binding result was “no binding”.

B11: DNA repeat (ssDNA)
DNA: GTTACAATAAGACCAAAATAGAATTGAAAG
modifications: [none]
Take B11: the binding result with PfCas6 (PF1131) [3] is “no binding”.

B12: CRISPR repeat RNA (ssRNA)
RNA: GUUACAAUAAGACCAAAAUAGAAUUGAAAG
For B12, the binding result with PfCas6 (PF1131) [8] is given as “binds”. Further, the activity with PfCas6 Y31F was ~2 fold reduction vs wild type; in the data set with PfCas6 K52A, > 40 fold reduction vs wild type; with PfCas6 K52E, > 150 fold reduction vs wild type.
